From the supplement of paper PMC10899765

Columns and labels:
Conditions in all cases: 20 nM; 72 h
MCF10A [1] = experiment: percent viability (nuclei count relative to siNT); higher = more viable cells
Procedure: (§1)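 After 72 h, cells were fixed and stained with Hoechst and anti-fibrillarin, and nucleoli per nucleus were counted with CellProfiler. Values are plate-adjusted percent effect for the one-nucleolus and 5+ nucleoli phenotypes, normalised to siNT (0%) and to the positive controls siNOL11 or siKIF11 (100%), as the mean of biological triplicates. Percent viability is the nuclei count relative to siNT.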

MCF10A [2] = experiment: 5+ nucleoli phenotype percent effect (relative to siNT 0% and siKIF11 100%); higher = more cells with five or more nucleoli
Procedure: as §1

MCF10A [3] = experiment: one-nucleolus phenotype percent effect (relative to siNT 0% and siNOL11 100%); higher = more cells with one nucleolus (ribosome biogenesis inhibition)
Procedure: as §1

Sequence | percent viability (MCF10A [1]) | 5+ nucleoli phenotype percent effect (MCF10A [2]) | one-nucleolus phenotype percent effect (MCF10A [3])
UCUCACCCCAACUCUGCCCCAG [hsa-miR-6784-3p] | 56.5% | 44.3% | -25.6%
UCUCACUGUAGCCUCGAACCCC [hsa-miR-1304-3p] | 44.7% | 22.9% | -27.3%
UCUCAGCUGCUGCCCUCUCCAG [hsa-miR-6787-3p] | 116% | 41.8% | -24.6%
UCUCAGGAGUAAAGACAGAGUU [hsa-miR-3664-3p] | 86.7% | 17.2% | -19.4%
UCUCAGUAAGUGGCACUCUGU [hsa-miR-4797-3p] | 47.4% | -38.9% | 57.2%
UCUCCCAACCCUUGUACCAGUG [hsa-miR-150-5p] | 224% | 26.7% | -2.57%
UCUCCCUUCCUGCCCUGGCUAG [hsa-miR-4685-3p] | 98.4% | 29.5% | -25.3%
UCUCGCAUCAGGAGGCAAGG [hsa-miR-6872-5p] | 56% | 24.9% | -13%
UCUCUCGGCUCCUCGCGGCUC [hsa-miR-3615] | 69.8% | 27.8% | -7.12%
UCUCUCUCCCACUUCCCUGCAG [hsa-miR-7110-3p] | 25.4% | 1.36% | -0.286%
UCUCUCUGACUCCAUGGCA [hsa-miR-6817-3p] | 39.3% | 1.83% | 1.99%
UCUCUGAGCAAGGCUUAACACC [hsa-miR-4653-5p] | 50.6% | -12.4% | 18.9%
UCUCUGAGUACCAUAUGCCUUGU [hsa-miR-3921] | 59.6% | -6.05% | -20.1%
UCUCUGCUCUGCUCUCCCCAG [hsa-miR-6728-3p] | 28.9% | 19.2% | -7.63%
UCUCUGGAGGGAAGCACUUUCUG [hsa-miR-518c-5p] | 45.4% | -17.1% | 33.3%
UCUCUGGUCUUGCCACCCCAG [hsa-miR-6824-3p] | 26.4% | -18.8% | 16.2%
UCUCUGGUCUUUCCUUGACAG [hsa-miR-6764-3p] | 27.5% | 17.2% | 0.623%
UCUCUUCAUCUACCCCCCAG [hsa-miR-6515-3p] | 85.2% | -2.57% | 4.68%
UCUGAAAGAGCAGUUGGUGUU [hsa-miR-4766-5p] | 56.2% | 2.75% | -18.9%
UCUGAAUAGAGUCUGAAGAGU [hsa-miR-4427] | 71.5% | 39.9% | -23.1%

Sequence | percent viability (MCF10A [1]) | 5+ nucleoli phenotype percent effect (MCF10A [2]) | one-nucleolus phenotype percent effect (MCF10A [3])
UCUGAAUUGUAAGAGUUGUUA [hsa-miR-4680-3p] | 114% | 14.3% | -21.5%
UCUGACAUCAGUGAUUCUCCUG [hsa-miR-6719-3p] | 115% | 20.2% | -5.44%
UCUGAGAGAGCUCGAUGGCAG [hsa-miR-6761-5p] | 56.8% | 9.71% | -17.3%
UCUGAGGCCUGCCUCUCCCCA [hsa-miR-4649-3p] | 54.4% | -6.15% | 23.9%
UCUGAGGUGGAACAGCAGC [hsa-miR-7162-3p] | 27.2% | -23% | 19.5%
UCUGAGUUCCUGGAGCCUGGUCU [hsa-miR-4682] | 104% | 18.8% | -20%
UCUGCAAGUGUCAGAGGCGAGG [hsa-miR-2276] | 160% | 38.4% | -15.8%
UCUGCACUGUGAGUUGGCUGGCU [hsa-miR-4793-3p] | 44.7% | -3.16% | 10.7%
UCUGCCAUAGGAAGCUUGGAGUGG [hsa-miR-6817-5p] | 65.4% | 1.17% | -25%
UCUGCCAUCCUCCCUCCCCUAC [hsa-miR-4769-3p] | 87% | 30.9% | -18%
UCUGCCCCCUCCGCUGCUGCCA [hsa-miR-1913] | 88.8% | 54.4% | -11.1%
UCUGCUCAUACCCCAUGGUUUCU [hsa-miR-767-3p] | 129% | 54.2% | -21.6%
UCUGGAUUGAAGAGACGACCCA [hsa-miR-6839-5p] | 36.1% | -12.4% | 2.28%
UCUGGCAAGUAAAAAACUCUCAU [hsa-miR-3128] | 24.9% | -13.6% | 10.4%
UCUGGCCAGCUACGUCCCCA [hsa-miR-3190-5p] | 48.9% | 19.8% | -10.2%
UCUGGCCUUGACUUGACUCUUU [hsa-miR-3922-3p] | 35.7% | 6.7% | -2.7%
UCUGGCUAUCUCACGAGACUGU [hsa-miR-4794] | 35.9% | 3.59% | 26.9%
UCUGGCUCCGUGUCUUCACUCCC [hsa-miR-149-5p] | 32.7% | -2.69% | 30.7%
UCUGGCUGUGCUGUAAUGCAG [hsa-miR-6504-5p] | 54.2% | -5.01% | 6.53%
UCUGGCUGUUGUGGUGUGCAA [hsa-miR-3064-5p] | 17.8% | -22.7% | 46.2%

Sequence | percent viability (MCF10A [1]) | 5+ nucleoli phenotype percent effect (MCF10A [2]) | one-nucleolus phenotype percent effect (MCF10A [3])
UCUGGGAGGUUGUAGCAGUGGAA [hsa-miR-3192] | 14.6% | -19.2% | 62.5%
UCUGGGCAACAAAGUGAGACCU [hsa-miR-1285-3p] | 28.8% | 2.8% | 20.6%
UCUGGGCACAGGCGGAUGGACAGG [hsa-miR-5189] | 34.5% | -2.97% | 29.3%
UCUGGGGAUGAGGACAGUGUGU [hsa-miR-4700-5p] | 35.8% | -10.2% | 29%
UCUGGGGUCUUGGGCCAUC [hsa-miR-7155-5p] | 10.2% | -0.455% | 34.2%
UCUGGGUGCAGUGGGGGUU [hsa-miR-6776-5p] | 2.41% | -32.7% | 24.4%
UCUGGUAAGAGAUUUGGGCAUA [hsa-miR-4490] | 54.4% | 46.4% | -25.9%
UCUGGUAUGUAGUAGGUAAUAA [hsa-miR-4774-5p] | 62.8% | 80.9% | -25.6%
UCUGGUCCUGGACAGGAGGC [hsa-miR-7152-3p] | 41.9% | 18.5% | -12.8%
UCUGGUGUAUAGCGUUGCUCA [hsa-miR-7978] | 27.6% | -4.49% | 19.2%
UCUGUAGCCUGGGAGCAAUGGGGU [hsa-miR-3137] | 13.2% | -20.3% | 24%
UCUGUAUUCUCCUUUGCCUGCAG [hsa-miR-4742-3p] | 24.4% | 3.24% | 6.5%
UCUGUCAUUUCUUUAGGCCAAUA [hsa-miR-215-3p] | 39.5% | -6.58% | 2.4%
UCUGUGAGACCAAAGAACUACU [hsa-miR-4677-3p] | 28.6% | -42.7% | 23.1%
UCUGUGAUAGAGAUUCUUUGCU [hsa-miR-4679] | 103% | 8.51% | -10.8%
UCUGUGCCCCUACUUCCCAG [hsa-miR-6889-3p] | 63% | 16.2% | -15.5%
UCUGUGCUACUGGAUGAAGAGU [hsa-miR-7157-3p] | 92.3% | 36.4% | -22.7%
UCUGUGCUUCACCCCUACCCAG [hsa-miR-6737-3p] | 68.8% | -3.33% | 3.19%
UCUGUGGAGUGGGGUGCCUGU [hsa-miR-7114-5p] | 16% | 7.56% | 15%
